Common to all, as to assay: FP
Experiment [1] concerns the target T1, RIT1•mGppNHp (human, UniProt Q92963 1-219).
The target of another experiment is HRAS•mGppNHp (human, UniProt P01112 1-189).
Experiment [2] addresses T1, RIT1•mGppNHp. The source holds these as a separate data set.
For the next experiment, the target named is T2, RAP1B•mGppNHp (human, UniProt P61224 1-184).
T2 chain: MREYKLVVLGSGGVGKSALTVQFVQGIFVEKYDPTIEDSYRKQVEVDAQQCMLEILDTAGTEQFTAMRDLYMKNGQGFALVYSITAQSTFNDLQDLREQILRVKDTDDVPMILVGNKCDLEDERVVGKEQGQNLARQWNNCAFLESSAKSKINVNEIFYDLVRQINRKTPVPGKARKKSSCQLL

For a further experiment, the target named is T3, RAP2A•mGppNHp (human, UniProt P10114 1-183).
T3 chain: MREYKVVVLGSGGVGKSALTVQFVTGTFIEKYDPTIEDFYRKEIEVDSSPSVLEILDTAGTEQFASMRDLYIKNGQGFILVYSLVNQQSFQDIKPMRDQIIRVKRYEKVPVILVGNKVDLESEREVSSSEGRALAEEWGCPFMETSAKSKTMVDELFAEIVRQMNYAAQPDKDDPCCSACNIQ

A further experiment has as its target RHEB1•mGppNHp (human, UniProt Q15382 1-184).
The target in another experiment is T4, RALA•mGppNHp (human, UniProt P11233 1-206).
T4 chain: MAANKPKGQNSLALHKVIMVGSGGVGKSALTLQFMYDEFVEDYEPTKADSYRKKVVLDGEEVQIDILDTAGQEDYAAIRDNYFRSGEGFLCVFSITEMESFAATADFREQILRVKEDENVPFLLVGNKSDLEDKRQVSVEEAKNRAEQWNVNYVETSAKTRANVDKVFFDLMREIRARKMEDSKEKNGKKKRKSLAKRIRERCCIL

For another experiment, the target named is T5, RRAS1•mGppNHp (human, UniProt P10301 1-218).
T5 chain: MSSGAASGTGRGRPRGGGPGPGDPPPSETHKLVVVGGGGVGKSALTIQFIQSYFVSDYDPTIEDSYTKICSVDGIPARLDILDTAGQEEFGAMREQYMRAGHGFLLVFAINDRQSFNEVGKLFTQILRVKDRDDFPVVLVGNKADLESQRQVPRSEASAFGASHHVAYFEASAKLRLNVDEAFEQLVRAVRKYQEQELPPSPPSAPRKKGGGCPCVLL

Where two headings read alike, the source gives them in different places.

T1 sequence (Q92963 whole entry): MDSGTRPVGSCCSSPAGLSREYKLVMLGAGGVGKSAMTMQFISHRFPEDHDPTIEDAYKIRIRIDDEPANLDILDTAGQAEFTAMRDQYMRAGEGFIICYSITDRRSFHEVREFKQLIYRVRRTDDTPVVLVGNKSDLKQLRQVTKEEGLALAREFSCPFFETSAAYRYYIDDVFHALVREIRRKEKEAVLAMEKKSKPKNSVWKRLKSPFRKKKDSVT
RHEB1•mGppNHp, sequence (Q15382 whole entry): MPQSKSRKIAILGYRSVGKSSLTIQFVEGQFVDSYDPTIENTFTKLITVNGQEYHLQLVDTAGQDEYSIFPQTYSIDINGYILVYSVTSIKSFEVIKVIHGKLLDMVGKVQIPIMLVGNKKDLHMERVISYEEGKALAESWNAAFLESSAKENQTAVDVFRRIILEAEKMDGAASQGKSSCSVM

B1: RASSF4-to-5 variant (RASSF4 RA domain with RASSF5 hotspot residues), MBP fusion (domain or fragment)
chain: YNHKTSVFTPADGIKTLVRVNSTMTTLQVLTLLLNKFRVEDGPSEFALYIVHESGERTKLKDCEYPLISRILHGPCEKIARIFLMEADL
One may read the Kd as a measure of binding affinity in units of concentration. Higher therefore signals weaker binding. Take B1: the figures for the Kd with RIT1•mGppNHp [1] and with HRAS•mGppNHp were 170 µM and 10 µM, respectively.

B2: RASSF1 RA domain, MBP fusion (domain or fragment)
chain: RGTSVRRRTSFYLPKDAVKHLHVLSRTRAREVIEALLRKFLVVDDPRKFALFERAERHGQVYLRKLLDDEQPLRLRLLAGPSDKALSFVLKENDS
As to B2, the dissociation constant (Kd) was determined as 136 µM with RIT1•mGppNHp [2]; 26 µM in the experiment with RAP1B•mGppNHp; 22 µM with RAP2A•mGppNHp; 37 µM with RHEB1•mGppNHp; 18 µM with RALA•mGppNHp; 33 µM with RRAS1•mGppNHp.

The values are drawn from PMC8163975 (2021).
